# Assay results as given in patent US20120258108A1 (AbbVie / Abbott, published 2012).
# Numbering of substitutions follows the chain as printed.
# B1: DVD1713 (bispecific antibody, human IgG1, kappa)
# heavy: not shown
# light: DIVMTQSPDSLAVSLGERATINCRASEDIYSNLAWYQQKPGQAPKLLIYDTNNLADGVPDRFSGSGSGTDFTLTISSLQAEDVAVYYCQQYNNYPPTFGGGTKVEIKRTVAAPEIVMTQSPATLSVSPGERATLSCSASQDISNYLNWYQQKPGQAPRVLIYFTSSLHSDVPARFSGSGSGTEFTLTISSLQSEDFAVYYCQQYSTVPWTFGQGTRLEIKRTVAAPSVFIFPPSDEQLKSGTASVVCLLNNFYPREAKVQWKVDNALQSGNSQESVTEQDSKDSTYSLSSTLTLSKADYEKHKVYACEVTHQGLSSPVTKSFNRGEC
# notes: DVD-Ig
# B2: AB287 (antibody, human IgG1, kappa, V domains shown)
# VH: EVTLRESGPALVKPTQTLTLTCTVSGGSISSSSYYWGWIRQPPGKGLEWIGDIYYTGSTYYNPSLKSRVTISVDTSKNQFVLTMTNMDPVDTATYYCARQALAMGGGSDKWGQGTTVTVSS
# VL: DYVLTQSPDSLAVSLGERATINCSGQRLGDKYASWYQQKPGQSPKLVIYEDSKRPSGIPDRFSGSNSGDDATLTISSLQAEDVAVYYCQAWDRDTGVFGGGTKVEIKR
# notes: CDR-grafted parent antibody
# B3: AB289 (antibody, human IgG1, kappa, V domains shown)
# VH: EVQLVQSGTEVKKPGESLKISCKASGFTFSNFPMAWVRQMPGKGLEWVATISSSDGTTYYRDSVKGQFTISRDNSFNTLFLQWSSLKASDTAMYYCARGYYNSPFAYWGQGTMVTVSS
# VL: EIVMTQSPATLSVSPGERATLSCRASEDIYSNLAWYQQKPGQAPRLLIYDTNNLADDVPARFSGSGSGTEFTLTISSLQSEDFAVYYCQQYNNYPPTFGQGTRLEIKR
# notes: CDR-grafted parent antibody
# B4: AB307 (antibody, human IgG1, kappa, V domains shown)
# VH: EVQLLESGGGLVQPGGSLRLSCAVSGGSISSSSYYWGWIRQAPGKGLEWIGDIYYTGSTYYNPSLKSRVTISVDTSKNTFYLQMNSLRAEDTAVYYCARQALAMGGGSDKWGQGTLVTVSS
# VL: EYVLTQSPGTLSLSPGERATLSCSGQRLGDKYASWYQQKPGQSPRLVIYEDSKRPSGIPDRFSGSNSGDDATLTISRLEPEDFAVFYCQAWDRDTGVFGQGTKVEIKR
# notes: CDR-grafted parent antibody
# B5: AB306 (antibody, human IgG1, kappa, V domains shown)
# VH: B4 VH with L5V, G16R, S76A, T79S
# VL: DYQLTQSPSSLSASVGDRVTITCSGQRLGDKYASWYQQKPGKSPKLVIYEDSKRPSGIPSRFSGSNSGDDATLTISSLQPEDVATYYCQAWDRDTGVFGQGTKVEIKR
# notes: CDR-grafted parent antibody
# B6: AB331 (antibody, human IgG1, kappa, V domains shown)
# VH: QVQLQQSGAELMKPGASVKLSCKVTGGSISSSSYYWGWIKQRPGHGLEWIGDIYYTGSTYYNPSLKSKVTITVDTSSNTFYIQLISLTTEDSAIYYCARQALAMGGGSDKWGQGTLLTVSA
# VL: DYLLTQSPAILSVSPGERVSFSCSGQRLGDKYASWYQQRTNGSPRLVIYEDSKRPSGIPSRFSGGNSGDDATLSINSVESEDIADYYCQAWDRDTGVFGAGTKLELKR
# notes: CDR-grafted parent antibody
# B7: AB316 (antibody, human IgG1, kappa, V domains shown)
# VH: EVQLVESGGGLVQPANSLKLSCAVSGGSISSSSYYWGWIRQSPKKGLEWIGDIYYTGSTYYNPSLKSRVTISVDTAKNTFYLQMDSLRSEDTATYYCARQALAMGGGSDKWGQGVLVTVSS
# VL: DYRLTQSPASLSASLGETVNIECSGQRLGDKYASWYQQKPGKSPQLVIYEDSKRPSGIPSRFSGSNSGDQASLKINSLQSEDVATYYCQAWDRDTGVFGGGTKLELKR
# notes: CDR-grafted parent antibody
# B8: AB299 (antibody, human IgG1, kappa, V domains shown)
# VH: EVQLVESGGGLVQPGGSLRLSCAASGFTFSNFPMAWVRQAPGKGLEWVATISSSDGTTYYRDSVKGRFTISRDNSKNTLYLQMNSLRAEDTAVYYCARGYYNSPFAYWGQGTLVTVSS
# VL: DIQMTQSPSSLSASVGDRVTITCRASEDIYSNLAWYQQKPGKAPKLLIYDTNNLADGVPSRFSGSGSGTDFTLTISSLQPEDFATYYCQQYNNYPPTFGQGTKVEIKR
# notes: CDR-grafted parent antibody
# B9: AB319 (antibody, human IgG1, kappa, V domains shown)
# VH: B8 VH with G15A, G16N, R19K, A40S, G42K, S75A, N84D, A88S, V93T, T112V
# VL: DIRMTQSPASLSASLGETVNIECRASEDIYSNLAWYQQKPGKAPQLLIYDTNNLADGVPSRFSGSGSGTQFSLKINSLQSEDVATYYCQQYNNYPPTFGGGTKLELKR
# notes: CDR-grafted parent antibody
# B10: AB309 (antibody, human IgG1, kappa, V domains shown)
# VH: B8 VH with G16R, S75A, T78S
# VL: B8 VL with F83V
# notes: CDR-grafted parent antibody
# B11: DVD1731 (bispecific antibody, human IgG1, kappa)
# heavy: not shown
# light: DIQMTQSPSSLSASVGDRVTITCRASEDIYSNLAWYQQKPGKAPKLLIYDTNNLADGVPSRFSGSGSGTDFTLTISSLQPEDVATYYCQQYNNYPPTFGQGTKVEIKRTVAAPDIRMTQSPASLSASLGETVNIECSASQDISNYLNWYQQKPGKAPQVLIYFTSSLHSGVPSRFSGSGSGTQFSLKINSLQSEDVATYYCQQYSTVPWTFGGGTKLELKRTVAAPSVFIFPPSDEQLKSGTASVVCLLNNFYPREAKVQWKVDNALQSGNSQESVTEQDSKDSTYSLSSTLTLSKADYEKHKVYACEVTHQGLSSPVTKSFNRGEC
# notes: DVD-Ig
# B12: AB290 (antibody, human IgG1, kappa, V domains shown)
# VH: EVTLRESGPALVKPTQTLTLTCTASGFTFSNFPMAWVRQPPGKGLEWVATISSSDGTTYYRDSVKGRFTISRDNSKNQLVLTMTNMDPVDTATYYCARGYYNSPFAYWGQGTTVTVSS
# VL: DIVMTQSPDSLAVSLGERATINCRASEDIYSNLAWYQQKPGQAPKLLIYDTNNLADGVPDRFSGSGSGTDFTLTISSLQAEDVAVYYCQQYNNYPPTFGGGTKVEIKR
# notes: CDR-grafted parent antibody
# B13: AB334 (antibody, human IgG1, kappa, V domains shown)
# VH: QVQLQQSGAELMKPGASVKLSCKATGFTFSNFPMAWVKQRPGHGLEWVATISSSDGTTYYRDSVKGKFTITRDNSSNTLYIQLISLTTEDSAIYYCARGYYNSPFAYWGQGTLLTVSA
# VL: DILMTQSPAILSVSPGERVSFSCRASEDIYSNLAWYQQRTNGAPRLLIYDTNNLADGVPSRFSGGGSGTDFTLSINSVESEDIADYYCQQYNNYPPTFGAGTKLELKR
# notes: CDR-grafted parent antibody
# B14: AB281 (antibody, human IgG1, kappa, V domains shown)
# VH: EVTLRESGPALVKPTQTLTLTCTASGFTFDDYAMHWVRQPPGKGLEWVSAITWNSGHIDYADSVEGRFTISRDNSKNQLVLTMTNMDPVDTATYYCAKVSYLSTASSLDYWGQGTTVTVSS
# VL: DIVMTQSPDSLAVSLGERATINCRASQGIRNYLAWYQQKPGQAPKLLIYAASTLQSGVPDRFSGSGSGTDFTLTISSLQAEDVAVYYCQRYNRAPYTFGGGTKVEIKR
# notes: CDR-grafted parent antibody; also called TNF (AB057)
# B15: AB285 (antibody, human IgG1, kappa, V domains shown)
# VH: EVTLRESGPALVKPTQTLTLTCTASGYTFTNYGMNWVRQPPGKGLEWVGWINTYTGEPTYAADFKRRFTFSLDTSKSQAVLTMTNMDPVDTATYYCAKYPHYYGSSHWYFDVWGQGTTVTVSS
# VL: DIVMTQSPDSLAVSLGERATINCSASQDISNYLNWYQQKPGQAPKVLIYFTSSLHSGVPDRFSGSGSGTDFTLTISSLQAEDVAVYYCQQYSTVPWTFGGGTKVEIKR
# notes: CDR-grafted parent antibody; also called VEGF (AB057)
# B16: DVD1720 (bispecific antibody)
# heavy: not shown
# light: EIVMTQSPGTLSLSPGERATLSCRASQGIRNYLAWYQQKPGQAPRLLIYAASTLQSGVPDRFSGSGSGTDFTLTISRLEPEDFAVFYCQRYNRAPYTFGQGTKVEIKRTVAAPDVQMTQSPSSLSASVGDRVTITCTSSQNIVHSNGNTYLEWYQQKPGKSPKLLIYKVSNRFSGVPSRFSGSGSGTDFTLTISSLQPEDVATYYCFQVSHVPYTFGQGTKVEIKRTVAAPSVFIFPPSDEQLKSGTASVVCLLNNFYPREAKVQWKVDNALQSGNSQESVTEQDSKDSTYSLSSTLTLSKADYEKHKVYACEVTHQGLSSPVTKSFNRGEC
# Target: Recombinant Human DLL4 (human, UniProt Q9NR61 27-524)
# Sequence (Q9NR61 27-524 limits assumed): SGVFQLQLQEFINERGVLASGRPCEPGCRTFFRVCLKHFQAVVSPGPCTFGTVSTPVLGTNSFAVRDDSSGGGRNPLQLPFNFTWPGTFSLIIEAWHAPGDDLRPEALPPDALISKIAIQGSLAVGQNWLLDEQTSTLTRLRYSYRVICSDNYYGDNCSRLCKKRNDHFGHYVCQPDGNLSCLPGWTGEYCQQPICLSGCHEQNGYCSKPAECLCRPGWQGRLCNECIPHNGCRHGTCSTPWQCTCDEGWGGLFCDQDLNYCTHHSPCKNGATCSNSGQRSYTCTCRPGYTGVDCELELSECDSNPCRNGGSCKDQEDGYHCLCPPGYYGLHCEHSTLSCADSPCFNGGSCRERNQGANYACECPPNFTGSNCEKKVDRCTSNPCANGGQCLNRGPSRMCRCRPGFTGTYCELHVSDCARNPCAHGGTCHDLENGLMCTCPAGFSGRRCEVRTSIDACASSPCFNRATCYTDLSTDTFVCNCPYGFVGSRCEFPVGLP
# Test: SPR (BIACORE)
# Method: (§1) The BIACORE assay (Biacore, Inc, Piscataway, N.J.) determines the affinity of antibodies or DVD-Ig with kinetic measurements of on-rate and off-rate constants. Binding of antibodies or DVD-Ig to a target antigen (for example, a purified recombinant target antigen) was determined by surface plasmon resonance-based measurements with a Biacore® 1000 or 3000 instrument (Biacore® AB, Uppsala, Sweden) using running HBS-EP (10 mM HEPES [pH 7.4], 150 mM NaCl, 3 mM EDTA, and 0.005% surfactant P20) at 25° C. All chemicals were obtained from Biacore® AB (Uppsala, Sweden) or otherwise from a different source as described in the text. For example, approximately 5000 RU of goat anti-mouse IgG, (Fcγ), fragment specific polyclonal antibody (Pierce Biotechnology Inc, Rockford, Ill.) diluted in 10 mM sodium acetate (pH 4.5) is directly immobilized across a CM5 research grade biosensor chip using a standard amine coupling kit according to manufacturer's instructions and procedures at 25 μg/ml. Unreacted moieties on the biosensor surface are blocked with ethanolamine. Modified carboxymethyl dextran surface in flowcell 2 and 4 is used as a reaction surface. Unmodified carboxymethyl dextran without goat anti-mouse IgG in flow cell 1 and 3 is used as the reference surface. For kinetic analysis, rate equations derived from the 1:1 Langmuir binding model are fitted simultaneously to association and dissociation phases of all eight injections (using global fit analysis) with the use of Biaevaluation 4.0.1 software. Purified antibodies or DVD-Ig are diluted in HEPES-buffered saline for capture across goat anti-mouse IgG specific reaction surfaces. Antibodies or DVD-Ig to be captured as a ligand (25 μg/ml) are injected over reaction matrices at a flow rate of 5 μl/min. The association and dissociation rate constants, kₒₙ (M⁻¹ s⁻¹) and koff (s⁻¹) are determined under a continuous flow rate of 25 μl/min. Rate constants are derived by making kinetic binding measurements at different antigen concentrations ranging from 10-200 nM. The equilibrium dissociation constant (M) of the reaction between antibodies or DVD-Igs and the target antigen is then calculated from the kinetic rate constants by the following formula: KD=koff/kₒₙ. Binding is recorded as a function of time and kinetic rate constants are calculated.
Binder,Kd [nM],koff [s⁻¹],kon [M⁻¹ s⁻¹]
B1,31,0.0029,92000
B2,1.5,0.00012,84000
B3,21,0.0055,260000
B4,1,9.5e-05,93000
B5,2.2,0.00015,68000
B6,2.3,0.00018,76000
B7,1,9.2e-05,89000
B8,24,0.0039,160000
B9,20,0.002,100000
B10,22,0.0028,130000
B11,22,0.0028,120000
B12,20,0.0039,200000
B13,14,0.0055,390000

# Target: T1, Recombinant Human TNFα/TNFSF1A (human, UniProt P01375 77-233)
# T1 construct: also called huTNFα
# T1 sequence (P01375 77-233 limits assumed): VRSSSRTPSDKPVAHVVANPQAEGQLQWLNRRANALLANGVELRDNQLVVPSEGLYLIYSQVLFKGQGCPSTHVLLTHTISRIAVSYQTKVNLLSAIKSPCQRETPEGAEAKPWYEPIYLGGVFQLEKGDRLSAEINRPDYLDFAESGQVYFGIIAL
# Test: SPR (BIACORE)
# Method: as §1
Binder,Kd [nM],koff [s⁻¹],kon [M⁻¹ s⁻¹]
B14,0.088,0.0001,1.2e+06

# Target: Recombinant Human VEGF 165 (human, UniProt P15692-4 27-191)
# Sequence (P15692 other isoform, or with tags, fused parts or gaps limits assumed): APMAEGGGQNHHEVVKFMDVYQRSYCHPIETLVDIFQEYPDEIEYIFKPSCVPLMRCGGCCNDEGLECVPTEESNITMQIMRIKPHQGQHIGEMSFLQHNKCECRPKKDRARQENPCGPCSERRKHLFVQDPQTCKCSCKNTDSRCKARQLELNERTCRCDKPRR
# Test: SPR (BIACORE)
# Method: as §1
Binder,Kd [nM],koff [s⁻¹],kon [M⁻¹ s⁻¹]
B1,0.1,7.7e-05,760000
B11,0.5,4.5e-05,89000
B15,< 0.001,< 1e-06,1e+06

# Target: T1, Recombinant Human TNFα/TNFSF1A
# Test: cell-based or functional assay
Binder,TNFα Neutralization Assay EC50 nM (L929 cells) [nM],N-terminal VD TNFα Neutralization Assay EC50 nM (L929 cells) [nM]
B14,0.104,–
B16,–,0.026
